Several values for one entry are separate records, joined by “and”; a condition that tells them apart may be missing. Identical values can stand only once. Square brackets hold non-standard residues; d marks the D form. Ends that are not written are not given here. pY = N[C@@H](Cc1ccc(OP(=O)(O)O)cc1)C(=O)O
Experiments:
SOCS2-Elo B/C + F3 [1] = target: T1, SOCS2-Elo B/C + F3 (human, UniProt O14508 32-198; Q15370 1-118; Q15369 17-112); assay: ITC
SOCS2-Elo B/C + F3 [2] = target: T1, SOCS2-Elo B/C + F3; assay: ITC; remark: listed apart in the source
F3 peptide = assay: NMR titration

T1 sequence (Q15370 whole entry, chain 2 of 2): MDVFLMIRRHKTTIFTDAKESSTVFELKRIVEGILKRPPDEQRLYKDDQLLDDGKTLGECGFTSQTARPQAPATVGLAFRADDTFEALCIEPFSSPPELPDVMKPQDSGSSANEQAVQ
T1 sequence (Q15369 17-112, chain 3 of 2): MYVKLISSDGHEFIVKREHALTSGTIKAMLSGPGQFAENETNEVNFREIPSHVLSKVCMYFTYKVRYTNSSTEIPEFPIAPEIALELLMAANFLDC

Binder	stoichiometry N (SOCS2-Elo B/C + F3 [1])	Kd (SOCS2-Elo B/C + F3 [2]) [nM]	binding result (F3 peptide)
STASTVQ[pY]STVVHSG [gp130 pY757 peptide]	0.738 and 0.632		
Cullin5 N-terminal domain (Cul5^1-384) (domain or fragment) MATSNLLKNKGSLQFEDKWDFMRPIVLKLLRQESVTKQQWFDLFSDVHAVCLWDDKGPAKIHQALKEDILEFIKQAQARVLSHQDDTALLKAYIVEWRKFFTQCDILPKPFCQLEITLMGKQGSNKKSNVEDSIVRKLMLDTWNESIFSNIKNRLQDSAMKLVHAERLGEAFDSQLVIGVRESYVNLCSNPEDKLQIYRDNFEKAYLDSTERFYRTQAPSYLQQNGVQNYMKYADAKLKEEEKRALRYLETRRECNSVEALMECCVNALVTSFKETILAECQGMIKRNETEKLHLMFSLMDKVPNGIEPMLKDLEEHIISAGLADMVAAAETITTDSEKYVEQLLTLFNRFSKLVKEAFQDDPRFLTARDKAYKAVVNDATIFK	0.81	41	
SOCS2-SH2^32–159 (domain or fragment, human, UniProt O14508 32-159, looked up) QAARLAKALRELGQTGWYWGSMTVNEAKEKLKEAPEGTFLIRDSSHSDYLLTISVKTSAGPTNLRIEYQDGKFRLDSIICVKSKLKQFDSVVHLIDYYVQMCKDKRTGPEAPRNGTVHLYLTKPLYTS			binds

From paper PMC8640019 (Nature Communications, 2021)
